In patent US11149077B2, “Targeted therapeutics based on engineered proteins for tyrosine kinases receptors, including IGF-IR” (BRISTOL-MYERS SQUIBB COMPANY, priority 2006, dated 2021):
Residue numbers refer to the chain shown, from its start.

B1: 354A10 (protein)
chain: VSDVPRDLEVVAATPTSLLISWSNRLVVKRYYRITYGETGGNSPVQEFTVPHQMKTATISGLKPGVDYTITVYAVTPGGYSGRNYGPISINYRTHHHHHH
B2: 353H09 (protein)
chain: VSDVPRDLEVVAATPTSLLISWSDKLKVQRYYRITYGETGGNSPVQEFTVPKHDRTATISGLKPGVDYTITVYAVTKMRDYRPISINYRTHHHHHH
B3: 339A01 (protein)
chain: B2 chain with D24T, K25A, D54S, R55H
B4: 385A08 (protein)
chain: B2 chain with D24A, K25R, Q29A, H53N, D54V, R55Y, K77R, M78F, R82Q
B5: 386A03 (protein)
chain: B2 chain with D24A, K25R, Q29A, H53N, D54V, R55Y, K77N, M78L, R82G
B6: 387B01 (protein)
chain: B2 chain with D24A, K25R, Q29A, H53N, D54V, R55Y, K77S, M78L, R82G
B7: 386F10 (protein)
chain: B2 chain with D24A, K25R, Q29A, H53N, D54V, R55Y, K77L, M78L, R82G
B8: 338A05 (protein)
chain: VSDVPRDLEVVAATPTSLLISWSDSLKVSRYYRITYGETGGNSPVQEFTVPKQYHTATISGLKPGVDYTITVYAVTPSNIIGRHYGPISINYRTHHHHHH
B9: 385A08-PEG40: 385A08 (SEQ ID NO: 203) coupled via Cys97 to a mono-functional branched 40 kDa PEG (conjugate)
chain: GVSDVPRDLEVVAATPTSLLISWSARLKVARYYRITYGETGGNSPVQEFTVPKNVYTATISGLKPGVDYTITVYAVTRFRDYQPISINYRTEIDKPCQ
modifications: branched 40 kDa PEG via Cys97
B10: 353F10 (protein)
chain: VSDVPRDLEVVAATPTSLLISWPTHYKVARYYRITYGETGGNSPVQEFTVPKHTYTATISGLKPGVDYTITVYAVTTTKGLRHYGPISINYRTHHHHHH
B11: 338A06 (protein)
chain: VSDVPRDLEVVAATPTSLLISWSARLKVARYYRITYGETGGNSPVQEFTVPKNVYTATISGLKPGVDYTITVYAVTKMRDYRPISINYRT
B12: 218C04 (protein)
chain: VSDVPRDLEVVAATPTSLLISWSPYLRVARYYRITYGETGGNSPVQEFTVPSSARTATISGLKPGVDYTITVYAVTPSNIIGRHYGPISINYRT

Key:
human IGF-IR = target: T1, human IGF-IR (Homo sapiens, UniProt P08069); experiment: Surface plasmon resonance (BIAcore) binding kinetics and affinity on immobilized IGF-IR
T1 construct: The extracellular domain of human IGF-IR (aa 1-932) was cloned into a mammalian expression vector; made in house
Experimental: The binding kinetics of fibronectin-based scaffold proteins binding proteins to the target was measured using BIAcore 2000 or 3000 biosensors (Pharmacia Biosensor). A capture assay was developed utilizing an IGF-IR-Fc fusion. A similar reagent had been described by Forbes et al. (Forbes et al. 2002, European J. Biochemistry, 269, 961-968). The extracellular domain of human IGF-IR (aa 1-932) was cloned into a mammalian expression vector containing the hinge and constant regions of human IgG1. Transient transfection of the plasmid produced a fusion protein, IGF-IR-Fc which was subsequently purified by Protein A chromatography and captured on Protein A immobilized on Biasensor CM5 chips by amine coupling. The kinetic analysis involved the capture of IGF-IR-Fc on Protein A followed by injection of the fibronectin-based scaffold protein in solution and regeneration of the Protein A surface by glycine pH 2.0. Sensorgrams were obtained at each concentration and were evaluated using a program Biaevaluation, BIA Evaluation 2.0 (BIAcore), to determine the rate constants ka (kon) and kd (koff) The dissociation constant, KD was calculated from the ratio of rate constants koff/kon. Typically, a concentration series (2 uM to 0 uM) of purified fibronectin-based scaffold protein was evaluated for binding to protein A captured human IGF-IR-Fc fusion protein.

[1] = Differential scanning calorimetry (thermal stability, Tm); format: physicochemical; conditions: for Tm: DSC
Experimental: Differential Scanning calorimetry (DSC) analysis of midscaled clones was performed to determine thermal stability. A 1 mg/ml solution of appropriate clone was scanned in a N-DSC II calorimeter (calorimetry Sciences Corp) by ramping the temperature from 5° C. to 95° C. at a rate of 1 degree per minute under 3 atm pressure. The data was analyzed vs. a control run of the appropriate buffer using a best fit using Orgin Software (OrginLab Corp).

human insulin receptor = target: T2, human insulin receptor (Homo sapiens, UniProt P06213); experiment: BIAcore binding to immobilized human insulin receptor; conditions: percentage of signal for insulin binding at similar concentration
T2 construct: purchased R&D Systems (Minneapolis, Minn.)
Experimental: One liter E. coli growths of selected optimized clones were prepared and the proteins were purified.
In brief, 60 ug/mL of IR diluted in acetate 4.5 was coupled/immobilized to a level of 8300 RU and 11.9 ug/mL of VEGF-R2-Fc diluted in acetate 5.0 was immobilized to a level of 9700 RU on flow cells 2 and 3. A blank reference surface was prepared on FC1. […] Fibronectin-based scaffold proteins were diluted to 10 uM in HBS-EP (10 mM Hepes 150 mM NaCl 3 mM EDTA 0.05% Surfactant P20) and injected at 20 uL/min for 3 minutes over the flow cells at 25 C and dissociation was observed over 10 mins.

RH41 sarcoma xenografts = experiment: In vivo antitumor activity in RH41 sarcoma xenografts; conditions: for AVE weight change: Day 20 to Day 42; for % TGI: calculated on day 39; for LCK: gross log cell kill
Experimental: *Tumor growth inhibition and probability values calculated on day 39. ^aVehicle was 80% PEG400, 20% dH2O. ^bVehicle was PBS. ^cAverage weight change for each group is the mean difference between weight at the start of treatment (Day 20) and after the end of treatment (Day 42). TVDT was calculated for a size of 500 mg Abbreviations used are as follows: po, oral route; ip, intraperitoneal route; LCK, gross log cell kill calculated as LCK=T−C/(3.32×TVDT) where T-C is the difference in time in days for the treated tumors (T) to reach a predetermined size (tumor target size) relative to the vehicle control group (C) divided by the tumor volume doubling time (TVDT) multiplied by 3.32.
Tumors were propagated in nude mice. Tumor passages occurred every four weeks for human RH41 xenografts. With regard to efficacy testing human tumor xenografts were implanted in nude mice. All tumor passages were subcutaneous (sc).
Antitumor activity was evaluated in terms of: a) cures, and for the murine tumor models, increases in lifespan reflected by the relative median survival time (MST) of treated (T) versus control (C) groups (i.e. % T/C values); and b) primary tumor growth inhibition determined by calculating the relative median times for T and C mice to grow tumors of a predetermined “target” size (1 gm for all sc tumor models described) and expressed as T-C values, in days. The definition of a cured mouse was one whose tumor was undetectable, or <35 mg, when assessed more than 10 tumor volume doubling times (TVDTs) post-treatment. The activity criterion for tumor inhibition/reduction was a statistically significant delay in primary tumor growth consistent with 1 gross log cell kill (LCK). The following formula was employed to calculate LCK: LCK=T−C/(3.32×TVDT)
Where, TVDT=median time (days) for control tumors to reach target size—median time (days) for control tumors to reach half the target size. […] The maximum tolerated dose (MTD) is defined as the dose level immediately […] which excessive toxicity (i.e. more than one death) occurred. […] Statistical evaluations of data were performed using Gehan's generalized Wilcoxon test (Gehan, Biometrika 52:203-223, 1965). Western Blot Analysis of 385A08-Fc

[2] = test system: human pancreatic adenocarcinoma cell line BxPC-3; experiment: Cell mitogenesis assay: IGF-I-mediated proliferation, 3H-thymidine; format: cell-based; conditions: IGF-I-dependent proliferation, BxPC-3, 24 hour IGF-I exposure
Experimental: The purified, optimized IGF-IR clones were evaluated in cell-based assays in order to confirm activity.
The human pancreatic adenocarcinoma cell line BxPC-3 (ATCC, Manassas, Va.) was plated in 96 well plates at a concentration of 2500 cells per well in RPMI 1640 (Invitrogen, Carlsbad, Calif.) containing 10% fetal bovine serum (Hyclone, Logan, Utah). The following day, cells were washed in starvation medium consisting of RPMI 1640 containing 0.1% BSA (Sigma, St. Louis, Mo.). Washed cells were pre-incubated for four hours in starvation medium containing various concentrations of each IGF-IR antagonist. […] For the final four hours of incubation, cells were exposed to [^3H]-Thymidine (0.25 μCi/well; Perkin Elmer, Wellesley, Mass.). After the incubation period, cells were washed in PBS, lysed in 100 μL buffer consisting of 0.1% SDS+0.5 N NaOH, and counted on a TopCount NXT Scintillation Counter (Perkin Elmer, Wellesley, Mass.). The data were analyzed using SigmaPlot (Systat Software, Point Richmond, Calif.).

[3] = Size-exclusion chromatography (solution properties, monomericity); format: physicochemical
Experimental: Size-exclusion chromatography (SEC) was performed using a TSKgel Super SW2000 column (TOSOH Biosciences, LLC), 4.6 mm×30 cm, on an Agilent 1100 HPLC system with UV detection at A214 nm and A280 nm and with fluorescence detection (excitation=280 nm, emission=350 nm). A buffer of 100 mM sodium sulfate, 100 mM sodium phosphate, 150 mM sodium chloride, pH 6.8 at a flow rate of 100 μL/min was employed. Samples (0.1 to 1 μg each) at a concentration of approximately 100 μg/mL were injected separately. Gel filtration standards (Bio-Rad Laboratories, Hercules, Calif.) were used for molecular weight calibration.

[4] = Table 4, optimized 218C04 clones
[5] = Table 7, FG loop optimized 338A06 clones

Molecule	ka (human IGF-IR; [4])	kd (human IGF-IR; [4])	Tm ([1]; Table 3) [°C]	ka (human IGF-IR; [5])	kd (human IGF-IR; [5])	% IR Binding at 10 μM (human insulin receptor; Table 8) [%]	Tm ([1]; Table 9) [°C]	other results
B1	1.1 1/M*s × 10^+6	1.8 1/s × 10^−4	46	–	–	–	–	–
B2	3.8 1/M*s × 10^+6	2.2 1/s × 10^−4	55	–	–	–	–	% IR Binding at 10 μM (human insulin receptor; Table 5): 0%
B3	1.2 1/M*s × 10^+6	6.7 1/s × 10^−4	–	–	–	–	–	–
B4	–	–	–	5.7 1/M*s × 10^+6	1.9 1/s × 10^−4	0	59	ka (human IGF-IR; Table 10, PEGylated variants): 6.9 1/M*s × 10^+6; kd (human IGF-IR; Table 10, PEGylated variants): 1.6 1/s × 10^−4; AVE weight change (RH41 sarcoma xenografts; 20 mg/kg, 2qdx20, 28 ip): 0.6 g; % TGI (RH41 sarcoma xenografts; 20 mg/kg, 2qdx20, 28 ip): 33%; LCK (RH41 sarcoma xenografts; 20 mg/kg, 2qdx20, 28 ip): 0.2; AVE weight change (RH41 sarcoma xenografts; 40 mg/kg, 2qdx20, 28 ip): 1.0 g; % TGI (RH41 sarcoma xenografts; 40 mg/kg, 2qdx20, 28 ip): 19%; LCK (RH41 sarcoma xenografts; 40 mg/kg, 2qdx20, 28 ip): 0.2
B5	–	–	–	5.2 1/M*s × 10^+6	4.6 1/s × 10^−4	3	62	–
B6	–	–	–	6.5 1/M*s × 10^+6	4.4 1/s × 10^−4	0	63	–
B7	–	–	–	1.9 1/M*s × 10^+6	2.3 1/s × 10^−4	3	58	–
B8	1.3 1/M*s × 10^+6	3.3 1/s × 10^−4	68	–	–	–	–	–
B9	–	–	–	–	–	–	–	off-rate (kd) relative to unmodified 385A08 (human IGF-IR): slightly increased; slower on-rate (ka) relative to unmodified 385A08 (human IGF-IR): approximately 10 fold; ka (human IGF-IR; Table 10, PEGylated variants): 0.6 1/M*s × 10^+6; kd (human IGF-IR; Table 10, PEGylated variants): 2.1 1/s × 10^−4; Outcome by (% TGI) (RH41 sarcoma xenografts; 40 mg/kg, TIWx3, 20 ip): A (A % TGI value of >50% was considered active); % TGI (RH41 sarcoma xenografts; 40 mg/kg, TIWx3, 20 ip): 56%; LCK (RH41 sarcoma xenografts; 40 mg/kg, TIWx3, 20 ip): 0.4
B10	3.7 1/M*s × 10^+6	2.1 1/s × 10^−4	59	–	–	–	–	–
B11	2.2 1/M*s × 10^+6	4.3 1/s × 10^−4	–	–	–	0	–	Kd (human IGF-IR; [4]): 0.069 nM; IC50 [2]: 10 to 20 nM; % IR Binding at 10 μM (human insulin receptor; Table 5): 2%; unfolding temperature (Tm) ([1]; DSC (FIG. 8)): 62 °C; solution behaviour by SEC (monomer / aggregation) [3]: monomeric behavior
B12	–	–	–	–	–	–	–	Kd (human IGF-IR; clone in solution phase, immobilized IGF-IR): 1.8 nM; solution behaviour by SEC (monomer / aggregation) [3]: virtually all monomeric
